Data: patent US20090136475A1 (FRAUNHOFER GESELLSCHAFT ZUR FORDERUNG DER ANGEWANDTEN …, published 2009)

T1: CD30 molecule on the Hodgkin-derived CD30-positive cell line L540Cy (UniProt P28908 19-595, limits assumed)
T1 construct: whole, on cells; the cell lines are human-derived; also called CD30-positive cells
T1 sequence (looked up): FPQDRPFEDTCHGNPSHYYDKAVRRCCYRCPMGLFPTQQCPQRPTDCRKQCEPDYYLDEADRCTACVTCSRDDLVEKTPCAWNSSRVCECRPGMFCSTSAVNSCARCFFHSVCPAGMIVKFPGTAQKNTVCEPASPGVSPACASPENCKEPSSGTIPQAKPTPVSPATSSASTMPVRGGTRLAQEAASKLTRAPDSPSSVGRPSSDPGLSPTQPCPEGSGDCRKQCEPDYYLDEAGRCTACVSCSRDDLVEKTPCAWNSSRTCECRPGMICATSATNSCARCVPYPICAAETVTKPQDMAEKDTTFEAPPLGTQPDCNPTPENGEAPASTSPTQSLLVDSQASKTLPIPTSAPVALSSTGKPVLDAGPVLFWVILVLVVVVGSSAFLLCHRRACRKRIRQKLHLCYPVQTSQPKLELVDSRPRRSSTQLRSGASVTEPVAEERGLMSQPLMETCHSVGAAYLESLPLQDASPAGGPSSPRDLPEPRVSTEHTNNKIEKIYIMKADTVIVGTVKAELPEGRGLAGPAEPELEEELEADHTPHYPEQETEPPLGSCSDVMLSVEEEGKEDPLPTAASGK

B1: recombinant complex (immunokinase) pMT-Ki-4(scFv)-eEF-2K (other)
chain: MGHHHHHHHHHHSSGHIDDDDKHMKLMAQPAMAQVKLQESGTELAKPGAAVKMSCKASGYTFTDYWMHWVKQRPGQGLEWIGYINPNTAYTDYNQKFKDKATLTADKSSSTAYMQLRSLTSEDSAVYYCAKKTTQTTWGFPFWGQGTTVTVSSGGGGSGGGGSGGGGSDIVLTQSPKSMAMSVGERVTLSCKASENVDSFVSWYQQKPGQSPKLLIYGASNRYTGVPDRFAGSGSGRDFTLTISSVQAEDLADYHCGQNYRYPLTFGAGTKLEIKRAAAELGGGGSMADEDLIFRLEGVDGGQSPRAGHDGDSDGDSDDEEGYFICPITDDPSSNQNVNSKVNKYYSNLTKSERYSSSGSPANSFHFKEAWKHAIQKAKHMPDPWAEFHLEDIATERATRHRYNAVTGEWLDDEVLIKMASQPFGRGAMRECFRTKKLSNFLHAQQWKGASNYVAKRYIEPVDRDVYFEDVRLQMEAKLWGEEYNRHKPPKQVDIMQMCIIELKDRPGKPLFHLEHYIEGKYIKYNSNSGFVRDDNIRLTPQAFSHFTFERSGHQLIVVDIQGVGDLYTDPQIHTETGTDFGDGNLGVRGMALFFYSHACNRICESMGLAPFDLSPRERDAVNQNTKLLQSAKTILRGTEEKCGSPRVRTLSGSRPPLLRPLSENSGDENMSDVTFDSLPSSPSSATPHSQKLDHLHWPVFSDLDNMASRDHDHLDNHRESENSGDSGYPSEKRGELDDPEPREHGHSYSNRKYESDEDSLGSSGRVCVEKWNLLNSSRLHLPRASAVALEVQRLNALDLEKKIGKSILGKVHLAMVRYHEGGRFCEKGEEWDQESAVFHLEHAANLGELEAIVGLGLMYSQLPHHILADVSLKETEENKTKGFDYLLKAAEAGDRQSMILVARAFDSGQNLSPDRCQDWLEALHWYNTALEMTDCDEGGEYDGMQDEPRYMMLAREAEMLFTGGYGLEKDPQRSGDLYTQAAEAAMEAMKGRLANQYYQKAEEAWAQMEE
notes: Single-chain fusion: pelB signal peptide, enterokinase-cleavable His10 tag, anti-CD30 Ki-4 scFv, eukaryotic elongation factor-2 kinase; It was expressed in the periplasm of E. coli BL21 Star (DE3) and purified by IMAC and SEC

Tests used:
[1] = molecular target: CD30 molecule on the Hodgkin-derived CD30-positive cell line L540Cy (UniProt P28908); assay: cell-based or functional assay
[2] = molecular target: T1, CD30 molecule on the Hodgkin-derived …; assay: flow cytometry on L540Cy cells, detection by anti-penta-His and FITC goat-anti-mouse IgG
Procedure: Cell binding activity of the recombinant complexes (immunokinases) expressed in E. coli BL21 Star™ (DE3) was evaluated using a FACSCalibur flow cytometry instrument and CellQuest software (Becton Dickinson, Heidelberg, Germany). Cells were stained with recombinant protein as described (25). Briefly, ten thousand events were collected for each sample, and analyses of Intact cells were performed using appropriate scatter gates to exclude cellular debris and aggregates. 5×10⁵ cells were incubated for 1 h on ice with 50 μl of bacterial protein extract at a concentration of 30-40 μg/ml or 100 μl of the immunokuinase containing supernatants respectively. The cells were washed with PBS buffer containing 0.2% w/v BSA and 0.05% w/v sodium azide (PBA) and then incubated for 30 min with anti-penta-His moab (Qiagen) diluted 1:2 in PBA buffer. Cells were washed and incubated with fluorescein-iso-thiocyanate (FITC)-labeled goat-anti-mouse IgG (DAKO Diagnostica, Hamburg, Germany) for 1 h at 4° C. After a final wash, the cells were treated with 2 μl 6.25 mg/ml propidiumiodide and subsequently analyzed on a FACScalibur (Becton Dickison, Heidelberg, Germany).

Molecule	calculated median IC50, growth inhibition of L540Cy cells, XTT-based colorimetric assay [1]	binding result [2]
recombinant complex (immunokinase) pMS-(L-DAPk2-Ki-4)-III/G, protein L-DAPk2-Ki-4-MH	0.004 to 0.035 µg/mL	
B1		binds
